Measured values taken from patent US20120195893A1 (UNITED STATES OF AMERICA AS REPRESENTED BY THE SECRETARY OF …, published 2012).

Target: T1, mouse DEC205 receptor (mouse, UniProt Q60767 28-1723)
T1 construct: whole, on cells; also called DEC25 receptor; CD205
Experiment: flow cytometry on DEC205-transfected A204 cells

B1: PyTh1 chimeric molecule (other)
heavy: EVKLLESGGGLVQPGGSLRLSCAASGFTFNDFYMNWIRQPPGQAPEWLGVIRNKGNGYTTEVNTSVKGRFTISRDNTQNILYLQMNSLRAEDTAIYYCARGGPYYYSGDDAPYWGQGVMVTVSSAKTTAPSVYPLAPVCGDTTGSSVTLGCLVKGYFPEPVTLTWNSGSLSSGVHTFPAVLQSDLYTLSSSVTVTSSTWPSQSITCNVAHPASSTKVDKKIEPRGPTIKPCPPCKCPAPNLLGGPSVFIFPPKIKDVLMISLSPIVTCVVVDVSEDDPDVQISWFVNNVEVHTAQTQTHREDYNSTLRVVSALPIQHQDWMSGKEFKCKVNNKDLPAPIERTISKPKGSVRAPQVYVLPPPEEEMTKKQVTLTCMVTDFMPEDIYVEWTNNGKTELNYKNTEPVLDSDGSYFMYSKLRVEKKNWVERNSYSCSVVHEGLHNHHTTKSFSQTPGKGGGGSGGGGSGGGGSVDEQLSKSVKDKVLLPCRYNSPHEDECEDRIYWQKHDKVVLSVIAGKLKVWPEYKNRTLYDNTTYSLIILGLVLSDRGTYSCVVQKKERGTYEVKHLALVKLSIKADFSTPNITESGNPSADTKRITCFASGGFPKPRFSWLENGRELPGINTTISQDPESELYTISSQLDFNTTRNHTIKCLIKYGDAHVSEDFTWEKPPEDPPDSK
light: DIQMTQSPSFLSTSLGNSITITCHASQNIKGWLAWYQQKSGNAPQLLIYKASSLQSGVPSRFSGSGSGTDYIFTISNLQPEDIATYYCQHYQSFPWTFGGGTKLELKRDAAPTVSIFPPSSEQLTSGGASVVCFLNNFYPKDINVKWKIDGSERQNGVLNSWTDQDSKDSTYSMSSTLTLTKDEYERHNSYTCEATHKTSTSPIVKSFNRNECGGGGSGGGGMGGGGSYNRNIVNRLLGDALNGKPEEK
notes: Mouse IgG2a scaffold with the variable domains of rat anti-mouse DEC205, made in SP20 myeloma cells; also called PhyTh1; PyTh1 vaccine
B1: binds.
